Data as given in publication PMC4785402, “Structure of ThiM from Vitamin B1 biosynthetic pathway of Staphylococcus aureus – Insights into a novel pro-drug approach addressing MRSA infections” (Scientific Reports, 2016).

Legend:
SaThiM = biological target: T1, SaThiM (Staphylococcus aureus, UniProt Q6GEY3); experiment: X-ray crystal structure of soaked complex, […] Å; assay type: binding; conditions: Mg2+ in four of the six active sites; active site at monomer interface
T1 construct: gene thiM; homotrimer, active sites between two monomers
T1 sequence (Q6GEY3 1-263): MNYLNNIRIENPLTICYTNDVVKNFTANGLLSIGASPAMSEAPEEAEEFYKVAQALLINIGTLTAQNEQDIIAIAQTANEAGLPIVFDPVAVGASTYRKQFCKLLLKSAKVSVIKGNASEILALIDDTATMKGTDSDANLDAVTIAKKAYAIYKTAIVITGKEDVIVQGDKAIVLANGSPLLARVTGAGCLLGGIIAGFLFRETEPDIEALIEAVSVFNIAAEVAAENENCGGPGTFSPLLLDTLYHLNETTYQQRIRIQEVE

Cc1nccn1CCO = experiment: purified protein; conditions: 4 mM ATP, 10 mM MgCl2, 50 mM potassium phosphate pH 7.5, 37 °C
purified protein = substrate: Cc1nn(C)c(C)c1CCO; experiment: purified protein; conditions: 4 mM ATP, 10 mM MgCl2, 50 mM potassium phosphate pH 7.5, 37 °C

Molecule: Cc1ncsc1CCO [THZ, 5-(hydroxyethyl)-4-methylthiazole]
- X-ray crystal structure of soaked complex, 1.90 Å (SaThiM): THZ identically occupies all six active sites of the two trimers in the asymmetric unit

Molecule: SaThiM (Staphylococcus aureus subsp. aureus MRSA252)
- Km (Cc1nccn1CCO): 831 ± 169 µM
- kcat (Cc1nccn1CCO): 3.63 ± 0.05 s⁻¹

B1: SaThiM (Staphylococcus aureus subsp. aureus MRSA252) (protein)
chain: T1 sequence (Q6GEY3 1-263)
- Km (purified protein): 834 ± 147 µM
- kcat (purified protein): 3.58 ± 0.133 s⁻¹
